Experimental data: the DeepSol protein solubility set

experiment: soluble on expression in E. coli; label from the status in PepcDB or PDB records

Sequence	soluble on expression in E. coli
MSDSASNTENSIQIEIFPSRILSPETAQKLLVELSQVDGILRVMIQGNRLPEKVGYGPGTGEKVEHPLRKPIQIGGQVIELRVSVGRIRLEVLNAEVKENVRAVCEKMLPFSFEFREGHFLRRKPTVTDYAKLGPEADPRLLGMVDPKAKINQLVFILEHHHHHH	not soluble
MYEYLLLTRKNALFSLAINEPSPTFALTIIAIFSSTNVRSSVVRLGCFRVEICCTCHTQYLKLEIMVIISYLKYVNLPCSFIFISNSFALVFKISAEV	soluble
MFWKFLVSGLVGSACSAYHRGPTNVSLALDPPTLSIIMDPSKDIVPIRAVIVGGGYAGSKTAYQLDSMFAVTHIDEKNFYELTNDIIPIITNPWKEDVNPKACRRMMVLHRYYLKRSNVVTGTVIGVDAKQVYLRDGRTVPYDLLFLATGERKPFPFQTRERTISGRVQELKRFNEFLQSCKKVAVVGGGPVGTSLAHDLASTRPDLQVHLFHQRAELLPRLPGVCRRHAQEKLLSNPNLHLHLLTRVTDIDGVVLPSNGDKAASSSSPARHSCAGQLVNPPTSNAAVAESSLTLATTNAPWWRSLLNTVWPRRGVVPDQYSVHYDTLQSKVQQQPSILQQVYYGKRDEVAECGVVQARGVEEGFDYVFALTGDTPRPIQCDELEGRSRKLPNILREHETRDGHYRVSTLMQFLDHPNIFGVGRCTNLPVMRGYGSSDIETRTLFRELNSVISNPTTMFLHSRDGVQLAHMRIPRIHVRLGVDDAVGCTPWSGGMTGVSSVHEFMQDRSYLLREFQKPVFYKQQDQAKVKQRMSQWMEEEITDIVDFSHC	not soluble
MSLEKMEDHFILCGYGLMGREIIKELPKDKVVVIDSDIGKVSAAREDGYVAVHGDATDDFTLEKAGIGKAKALICCMSDASNAFAILTAKELNPRIKTVAILRSPDAEKKMRRVGVDILLSPYRDAAKKIISLLSEKAVAEFVETVISGAKSLNLEKVVADEYMDGKTLRELDLRRRTGCIVVAVVRRGDVILPEADTRLEKGDILYILCSGEAPLELEGHHHHHH	soluble
NKDGPVCLQVKPCTPEFYQTHFQLAYRLQSRPRGLALVLSNVHFTGEKELEFRSGGDVDHSTLVTLFKLLGYDVHVLCDQTAQEMQEKLQNFAQLPAHRVTDSCIVALLSHGVEGAIYGVDGKLLQLQEVFQLFDNANCPSLQNKPKMFFIQACRGDETDRGVDQQD	soluble
MGSDKIHHHHHHMKENIEKLFQAIAQKNPIHSKYLKKIEFSQEDEEEFDKLISYYIQDGISIKEQCDCYLLILNDTLEETKFFIENGAYRYSSFDEVKDKVYFNESYMKQYMIGLALSSFVWIAHIKVRKYFSQYLQNFTPKTTYFEIGPGHGEYFARAVKSGKFSAFYGLDISPTSCELTQKMVKQQVGGLITKCDFLCQDFFTYDFDKKADLIVIGEVLEHVEKPLEFLKRSKELLSDGGEIFATIPINAPAIDHIYLFSHPDEVKDLIEKSGLKFKAYECFMANDYSLEKALKFKNAITMAVVLNA	not soluble
AALAEIVAQLNIYQSQVELIQQQMEAVRATISELEILEKTLSDIQGKDGSETLVPVGAGSFIKAELKDTSEVIMSVGAGVAIKKNFEDAMESIKSQKNELESTLQKMGENLRAITDIMMKLSPQAEELLAAVA	soluble
MGSDKIHHHHHHMIQPVSCICPIAAKLITSRPAQKLLPAPESTTARASEAATSLAAAITAASMCLSTAFILSARVRVTWATWSRISTDTRALSSAITAPPSGCRLNVACSLPRFGRAFQPDARARRTGSFPDRDLISPDLPLPACARAARSWAMTDSRQTPLAQSLPASVPFVGPETHERQRGAPFVARLGANENLFGVSPKAIAAMQASAAEIWKYGDAESYELRAALSALHGIAPEHIMVGEGIDGLLGNLVRLYVGAGDAVVTSLGAYPTFNYHVAGFGGDLHTVPYKDDHEDIKALMAKAHEVGAKLVYLANPDNPMGSWHRGADIVAALDDLPEGSLLVLDEAYVECAPKGTAAPVDVTDPRVIRMRTLSKAYGMAGARVGYAMGAVEVISAFHKVRNHFGMNRCAQIGATEAIKDQAWLAHVQAEIATAREEISRIARENGLTPLPSATNFVAIDCGRDGAFAKAVLEALVARDIFVRMPFAAPQNRCIRVSCGPERERRAFAEALPLALKDAQNGA	not soluble
MIRLVIVEPEGSYNLGFISRLAKNFLVDELYIVNPHCDLEEAKKFSAKGLEYLEKAKIVNNFDEAIKDVELKIATSSIADIKGDILRKSIRPWELPRIIEGKKVALIFGRESVGLTREEIAKSDLLLFIPGNPEYPVLNLSHAVGIVLYEIWKSRGENKPVISGEAISLIDKYSRDLVNLIKSNEGDEAMYIALKRALIKGIGDEEEARTIIRLLRKLYIKLTRKIE	soluble
MEMTSAFTLNVRLDNIAVITIDVPGEKMNTLKAEFASQVRAIIKQLRENKELRGVVFVSAKPDNFIAGADINMIGNCKTAQEAEALARQGQQLMAEIHALPIQVIAAIHGACLGGGLELALACHGRVCTDDPKTVLGLPEVQLGLLPGSGGTQRLPRLIGVSTALEMILTGKQLRAKQALKLGLVDDVVPHSILLEAAVELAKKERPSSRPLPVRERILAGPLGRALLFKMVGKKTEHKTQGNYPATERILEVVETGLAQGTSSGYDAEARAFGELAMTPQSQALRSIFFASTDVKKDPGSDAPPAPLNSVGILGGGLMGGGIAYVTACKAGIPVRIKDINPQGINHALKYSWDQLEGKVRRRHLKASERDKQLALISGTTDYRGFAHRDLIIEAVFENLELKQQMVAEVEQNCAAHTIFASNTSSLPIGDIAAHATRPEQVIGLHFFSPVEKMPLVEIIPHAGTSAQTIATTVKLAKKQGKTPIVVRDKAGFYVNRILAPYINEAIRMLTQGERVEHIDAALVKFGFPVGPIQLLDEVGIDTGTKIIPVLEAAYGERFSAPANVVSSILNDDRKGRKNGRGFYLYGQKGRKSKKQVDPAIYPLIGTQGQGRISAPQVAERCVMLMLNEAVRCVDEQVIRSVRDGDIGAVFGIGFPPFLGGPFRYIDSLGAGEVVAIMQRLATQYGSRFTPCERLVEMGARGESFWKTTATDLQ	soluble
SALTCEVCVLTVPVVSNSTPGSLYVVATPIGNLDDMSVRALKVLREVALIAAEDTRHSARLMQHFGISTPLAACHEHNERDEGSRFITRLLAGDDVALISDAGTPLISDPGYHLVRQARAVGVPVVP	not soluble
FISDLHLEAERPDITRAFLSFLDERARRAEALYILGDFFEAWIGDDGMDAFQRSIAQSLRQVADGGTRIYLMHGNRDFLIGKAFCREAGCTLLPDPSVIDLYGEPVLLMHGDSLCTRDEAYMRLRRWLRNPLTLWVLRHLPLATRHKLARKLRKESRAQTRMKAVDIIDVTPEEVPRVMRGHGVRTLIHGHTHRPAEHPLDIDGQPARRIVLGDWDRQGWALEIDANGHR	not soluble
SGELGEHRASLLSNPIPEVKTLGELKQGQNNGNLDLESEPFGSHWLQGSKATTGRTSEEPEEEIPPEEMAGEELPETSNLDGPLQQDLEVEVVEMSHLSITERTPSVSTAKGRKKRSRRLLELAKPKTNWQCLRDRPSVYWTERFIEDTTLTITVPVVSQRMEELSRPKRFYQEYYNNNRTTPIWSIPRSTLEYQASNRLKQLATPKVRNNIWSINMSEVSQVSRAAQMAVPTPRTLRLAKPRPPATLLEEWDPMPKPKPYVSDYNRLLQLATPKALSEKCVPDRSPQWEVLDVTKNAVASSRIISLAQPKIRKDLNEGYNPYYISPASLVAQASPRIYELATPKYITKKV	soluble
MGSDKIHHHHHHMELKKLMEHISIIPDYRQTWKVEHKLSDILLLTICAVISGAEGWEDIEDFGETHLDFLKQYGDFENGIPVHDTIARVVSCISPAKFHECFINWMRDCHSSDDKDVIAIDGKTLRHSYDKSRRRGAIHVISAFSTMHSLVIGQIKTDEKSNEITAIPELLNMLDIKGKIITTDAMGCQKDIAEKIQKQGGDYLFAVKGTQGRLNKAFEEKFPLKELNNPEHDSYAISEKSHGREEIRLHIVCDVPDELIDFTFEWKGLKKLCVAVSFRSIIAEQKKEPEMTVRYYISSADLTAEKFATAIRNHWHVENKLHWRLDVVMNEDDCKIRRGNAAELFSGIRHIAINILTNDKVFKAGLRRKMRKAAMDRNYLASVLAGSGLS	not soluble
MAHHHHHHMPGPGLLPDGWFREESTMWPGQAQGLKVEKVLYDQPTEFQHLTVFESDPSGPWGTVMTLDGAIQLTDYDEFVYHEMLANLSLACHHKPERVLVIGGGDGGVVREVLRHKSEKDGVVQSVELVDIDGAVMQQSKKHFPQVACGFANPCVTATVGDGAAFVRNVPDSVYDVIIIDTTDPKGPASELFGADFYTNVLRILRPGGVVCNQGESVWLHRPLIEKMMGFLKKDIGFATVKYAMIYIPTYPCGSIGTLVCAKSADTDVTVPMRPVESLGFADQLKYYSSDMHKAAFVLPRFAAHLNE	soluble
TANKRHYLEKVSHQGIISALAFDQRGALKQMMAAHQEGEATVTQIETLKVLVSEELTPYASSILLDPEYGLLATKVRANQTGLLLAYEKTGYDATTTSRLPDCLVEWSVKRLKAAGADAIKFLLYYDVDGDEQINLQKQAYIERIGSECTAEDIPFFLELLSYDERISDNNSAAYAKLKPHKVNGAMSVFSDKRFGVDVLKVEVPVNMAYVEGFTEGEVHYSQAEAIKAFQDQEAASHLPYIYLSAGVSAKLFQETLYFAAAAGAQFSGVLCGRATWAGSVPVYITKGEDEARKWLCTEGFQNIDELNRVLEETASPWTEKI	not soluble
MKLTLMFREYCSLCHKMRDELKPFQDEYGFGLEVVDVDENPVLEEKYNELVPVLLAGDEEICHWFLDEDRLKQFLER	not soluble
MSAASEAVSGALFQHLFRIFSLFADQNEKGTFKPAQAEFLIDELLRELRRQTTPKVHDLPENVTFNEFLNLLQVIFPDREDLLIATNRVFERYVNHVIGKGFVLFRKLSQKRGCLPFKRRTEDWQFGWLQVLPGVAEIRKQNSDIDDIIQFDEDTVIEPPVIDEDASVWSVICNSTTAFQFSHLDPIMAQLFVKGFLTYWKLNLKYFFSDMRSARDFPTREELAVFDYKRSLKSRPTKEGKSRKELETERCRLESELEEEKKNRKDEEIVRGLTTRLLKQEMEKSEQMQQVIYELRSKLDNGENEAGVDDEDIVDVEMIEDEISEDVGENEEISITLPSREEKIQQYAYHLYATQAEEHVTSDDEEIWKQNYNLIVSTHFTDTMWKSCKPIVYCSEIVSQIVNQSPFIFLINLNNDLHNRATLGLTTYLVSYRFPCSFFLIELKMTKLRVGFIGYGHLGKFLVEKLRLLPEEFEIVKIWNRSVGEPGVQGLETLTAENLKDIDLVVEVAHPKIIADYGELILEHCDLFAGSPTCFANQELLEKLTKLSLSHGKKLLIPAGALWGANDIQKMADVGSLKGLTVTMIKHPTSFKLGSPLFEINEKAKLEETNETVLYEGSVRGLCPLAPNNVNTMAGGALAASNLGFDEVKAKLISDPKMTDWHVVEVRVEGDDGFEVITRRNNPAKPGAVTGQLTYYSFLSSIKESRYKPIGVQLC	not soluble
MSLVWTKTTYMGINCWKSVSDMWNYQEILSELQPSLVIEFGTRYGGSAVYFANIMRQIGQPFKVLTVDNSHKALDPRARREPDVLFVESSSTDPAIAEQIQRLKNEYPGKIFAILDSDHSMNHVLAEMKLLRPLLSAGDYLVVEDSNINGHPVLPGFGPGPYEAIEAYEDEFPNEGHHHHHH	not soluble
MGSDKIHHHHHHMAEGSSSSSLTRLMSILDIFTETRPEWSSDDMMTELGYPRPTLYRYLKVLTDAGMLASNGHGIYTLGPKVVEMDHLLRLSDRLVAIGRPVVAQLTEQYACTAFLVRWYRNRLLCMHSETSLEAPLSSYPRGRVMPMNRGAIARTILAHLQSRKARKIIESFAPEGPEDARKAYIAEQAAALRSVRRNGYAIAFGEVTPGVVGVASPIFDEAAEPAGALCMTMRQEDCPHELRTLITQAVPAAANSITVTLRQSRHTGTDHTHLPLQEEVKDR	not soluble
